Source: the DeepSol protein solubility set

Assay: soluble on expression in E. coli; label from the status in PepcDB or PDB records
In the case of “MSLQSSVKTERQYLSGRGCDDMVQWDFMCTGGNNSGKWTKIGVPSCWELQGFGTYQYGMKFYGKAFPEGVADEQGLYKYEFELPAEWNGKQIELVFEGSMTDTQVKINGRKAGSMHQGAFYRFIYNVSDRVFFGSKKKNVLEVTVSKESANAGVNLAERRADYWNFGGIFRPVFIVAKPAQNIDRLVIDAKADGNFYADCFLNMAVEGARVHTVITDAKGKKVAENTSDVRTGSDHASINFAVKSPELWTAETPAMYQATFTLLDKAGKTLHVENQKFGFRTIETRESDGLYINGRRVMIKGVNRHSFRPESGRTLSKAKNIEDVLLIKSMNMNAVRLSHYPADPEFFEACDSLGLYVMDELSGWHGKHETINGQKLVKEMITRDVNHPCIIWWSNGNEKGWNTELDGEFHKYDPQKRPVLHPQGNFSGYETMHYRSYGESQNYMRLPEIFMPTEFLHGLYDGGHGAGLYDYWEMMRKHPRCAGGFLWVLADEGVKRVDMNGFIDNCGNYGADGIVGPHHEKEGSYFTIKQVWCPIQIMTDSLDSQFDGKLKIENRYDFLNANTCRFTYKYVQLPSVTDKGGMKVMKQGEVNCPDIPAHGAGTLTIPAAVKGANALMLTVTDKQGNDLFTWSYKLDDVAGLQQVSAGNKPSYKETADALTVDAEGRTFTFSQKDGQLKGVKVGSRIISLANGPRFIAAKRSDRSMDQFYNHDDKEAEKKKTQYTTFDDAGRFTGFTVREEGNNVVVTANYKLGCFDQAVWTIAPDGTAAIDFTYNFSGVVDLMGVMFDYPEDKVLSKRWVGDGPYRVWQNRLHGPQLGVWENEYNDPIPAESFTYPEFKGYFANVQWMTLKTQEGTISICNRTPQNYVGVYQPRDGRDGLLYTFPATGISLMKVIPPVRNKVNTTDLIGPSSQAFWADGAYGGGITLKFEEGHHHHHH”, the “soluble on expression in E. coli” value is reported as “soluble”.
With “GGALGGSIAFETVDAQDLLEGNQKLGMMLRSGYASASDGYLGGTSVYGLLSDHLGILVDVSGQNEDDYRGGSGEDALYTATKDRNYFAKLSLLDLEGHTLKVGATHNKSSGHYVSGSTGSDMGAPSASQKADFQVLKRDTYTLDHRYNPENPYVDIQTKIYRNERHLENRTSLLDVTSQTTGGSLKNVMTLDSGIFQHRFTLGGDYEQEKGIVENSLYENEAKTTGLFLQGLTRVEALKLHYGLRWDDYKSDFGPKTLSGDELSPNFGAEYELLSGLALFSNYSESVRAGGIIPLQWMAGITQSANFNNGEAFKPEISKQKEGGIKYSTRGVFADNDRMKLSATLFKTTIENLIDYTRSGGPSGKITKIFNQEEDLISKGYELKASWEKEAWATSLGFIHVEMEEGGEPVVVSRRKAASMGDRFVWDVSYQMTPELLLGYTLHAVDKLDDVPALYRRAGYVTHDLELQWRPASIKGLTWSLAVHNLLDKSYYEQSSFESGDSIVEEAGRDVRLAVKYKF” the “soluble on expression in E. coli” value was “not soluble”.
With “MSVEAEKAVLGTFLECPYLLKETVLTETHFSDPKHRKLFAAMKRIAQQGDEPDIVTLSTTEDVADFGGLSYLNEVSAFANETKFDQYEALVLDEWKEREKRRILVVAAQENWDIDKITTALTRLNEGRITDHHDISDLLHEVAEAPWTPTERKMGAPSGISELDKMLNGFNDGDSIILAARPSMGKTDFMIHFAKSVGWHGYLPIVFSLEMAADKIRDRLIGSIGGFNRMKLRNPYHDLSEEQKRMWIEVIGKASETRMQIFDGAGQSIADIRSKIRKAINRFPDRKPVVFIDYLTLIRPERYYGGNMHLQVTEISRAIKETAKEFSCPIITLAQLSRDVEKRSDKRPLMSDIRESGSIEQDADVVIFLYRDSYYNADADPRVAEVIVAKSRNGAVGTVRVSYNRNTGVIQDLYRP” the “soluble on expression in E. coli” value was “not soluble”.
For “MKITVPATSANIGPGFDSVGVAVSKYLTIEVLEPADVWFIEHDLGDIPSDENNLLISTALQVKSDLQPHKLVMASDIPLAR”, the “soluble on expression in E. coli” value was “not soluble”.
For “MGVHSFWDIAGPTARPVRLESLEDKRMAVDASIWIYQFLKAVRDQEGNAVKNSHITGFFRRICKLLYFGIRPVFVFDGGVPVLKRETIRQRKERRQGKRESAKSTARKL”, the “soluble on expression in E. coli” value was “not soluble”.
With “MITLREFKEENTAQLTHILNEPEVVKYLSSKIPKPDTLQDAQWWISTGSKFGIVKAIECNGSLIGCIGADRGEFEYQRSAEIGYWIAKDYWRQGVATQAISELIPLIFTTTDIVRLFASVFSENTASMRVLDKCGLKLEAIHKKAIYKDGKFYDNHIFSILKT” the “soluble on expression in E. coli” value was “not soluble”.
For “MSPFDYLHFALLLVAPLAVLIGCGGKKKPPPPKSASKMGPPPPAPAPPTAPEATPAAPAPDAAAAAPAEGEKKDGDKKSEKKDGDKKEEEKKDEEKKDGDKKEDDKKDEKKDEDKKDEKKDADEKKDEEKKDDKKDEKKDEKKDEKKEKSKKSKKSSKSKKSKKSKREKKDEDKKEDDKKEDDKKDDKKEDDKKDDEKKDDDKKDDEKKE”, the “soluble on expression in E. coli” value was “not soluble”.
For “GPLGSPEFPGRRKPEAQPFAHLTINAASIPSGSHKVTLSSWYHDRGWAKISNMTLSNGKLRVNQDGFYYLYANICFRHHETSGSVPTDYLQLMVYVVKTSIKIPSSHNLMKGGSTKNWSGNSEFHFYSINVGGFFKLRAGEEISIQVSNPSLLDPDQDATYFGAFKVQDID”, the “soluble on expression in E. coli” value was “soluble”.
In the case of “MFTSKPAFKIKNKASKSYRNTAVSKKLKEKRLAEHVRPSCFNIIRPLKKDIQIPVPSSRFLNKIQIHRIASGSQNTQFRQFNKTSIKSSKKYLNSFMAFRAYYSQFGSGVKQNVLSSLLAEEWHADKMQHGIWDYFAQQYNFINPGFGFVEWLTNNYAEVRGDGYWEDVFVHLAL”, the “soluble on expression in E. coli” value is reported as “not soluble”.
For “MGSDKIHHHHHHMIDLKRNSKKIPIEATGLRSRKSSLYEPNQKEDFKISRGRFSNFLTCQRCFYLDRVRGLDPPGTPGWTLNETTDLLLKKEFDYCRQKQIPHRIFASNGLSHVVPFDHPEIDNWRNSLNRGLMHRYKDTGIILTGGVDDIWQDTITEQLIIVDYKSQAKNGRVDKKDYLDDPFHEAYKIQMDFYAYLLSGMGFSVHPTSYFLVCNAKRDEDEFNKTMRFDEYLVPYKWNNDWIESRLDEMVALMNQLEVPESNHSCKNCAYADQYSKIIFSGNTSQKEITQGTLPLF”, the “soluble on expression in E. coli” value was “not soluble”.
With “MNASAPIPLNETQRLLRIQELCVLEDTSDEVFDEIVAMTAEFFQTPIALVSIVDEHRQWFRARVGLSARETPRNVSFCAYTILSDTLFEIPDATLDERFMNNSLVTGHPDIRYYAGAPLITDDGLALGSLCVIDTKPREPMSEHQTQMLKRFASLVMKRIVSLRL” the “soluble on expression in E. coli” value was “not soluble”.
For “MAHHHHHHMPPPNTLQRGSEWVAQCMRDIKAAKLQQTVRPYSNGTPAGEALPVRTIVATSRIHRGEHLGTVKRDSIMTGERASQLLRRACRGGPSQTDVTAATGLQPLAAQRFDDLVSRISSLPSALSVPPHLLLSRDALLVTVALYLTRSPLNAGVLPAESPLRAWADALPRRPPPMGALLRRSFLSHDDVEPLPRRLRLGQRTKEVAPGEDVAAASTELMVQAVEQGELELADLRRPEMETALTPTVLTNYFKGRMSALTQRQRQSQRARGGVAEAEEGALHLFMTWERQLQTHFVDALLPVLLLPSCGSCASNLEAVQDSAAWLGEESALRWAHFMTRSRAVNLNWRHPGPPQLSIVPLVDMLNHTSRANANVVYQREDSGDVCVTASRTIEAGEELVLRYNHIGQRGCLFGDLPRPSKPTAEHERGRLSGKAAAVADEVHRIEKRQYWELYACDEDEEAVQHTGHTPSTSFTASTRCGTFDPAPPAAVGQQEMEQEVQWLWRFGFLRSNEEKNREAALLWSRGLRSRIAHLTDVRRKGRPGEFVLGVPEGLQHLREQREQLERNRYNNKKVFPPQQL”, the “soluble on expression in E. coli” value was “not soluble”.
For “MKHQHQHQHQHQHQMHQTEDYCLASNKVGRCRGSFPRWYYDPTEQICKSFVYGGCLGNKNNYLREEECILACRGV”, the “soluble on expression in E. coli” value was “soluble”.
In the case of “MNKISPLGSNWNEFEQQIFNEEEIRESNLRVALIKELITSRQQLGISQKQLETLSGVKQPMIARIEKGQTNPQLETLLKLLAPLGKTLSIVPLRVKNA”, the “soluble on expression in E. coli” value is reported as “not soluble”.
In the case of “MLSALLIAKRYSSKEDTMPHLFPDLPYAYDALEPYIDTKTMEVHYSKHHRTYYDKFLSAIKGTEHEDRPLSEIFARVSTLPAAVRNHGGGYYNHIVYWNCMKPNAGGEPQGELAAEIERQFGSFAQFKEAFSQAAVNTFGSGFVWLIVQQGQLSITSTSNQDNPLMDVVAVRGEPILALDVWEHAYYIRYQNRRPEYIDAWWNVVNWEAVSENYAIALTQAA”, the “soluble on expression in E. coli” value is reported as “not soluble”.
